From the RNAGym collection of RNA variant scans (doi:10.1073/pnas.2313332121)

B1: TPR t1 (parent)
chain: GACCAAUCUGCCCUCAGAGCUCGAGAACAUCUUCGGAUGCAGAGGAGGCAGGCUUCGGUGGCGCGAUAGCGCCAACGUCCUCAACCUCCAAUGCAUCCCACCACAUGAUGAUGCCUGAAGAGCCUUGGUUUUUUG

Variants of: B1
Assay: polymerase ribozyme fitness, log enrichment relative to wild type (log ratio); higher = more active; in vitro selection for triplet polymerase activity
Method in brief: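 Fitness compares each genotype's enrichment to that of the wild type on a logarithmic scale, averaging replicates with inverse-variance weights. The logarithm is base 2. Enrichment came from Illumina sequencing of input and output libraries after one triplicate round of in vitro selection, which included frozen incubation at −7 °C, of PCR-built, transcribed mutant libraries of each subunit of a heterodimeric triplet polymerase ribozyme. Only genotypes with ≥10 input reads and ≥1 read per output were kept.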

Variant	polymerase ribozyme fitness (log ratio)
GACCAAUCUGCCCUCAGAGCUCGAGAACAUCUUCGGAUGCAGAGGAGGCAGGCUUCGGUGGCGCGAUAGCGCCAACGUCCUCAACCUCCAAUGCAUCGCACCACAUGAUGAUGCAUGAAGAGCCUUGGUUUUUUG [C98G C115A]	-5.15
GACCAAUCUGCCCACAGAGCUCGAGAACAUCUUCGGAUGCAGAGGAGGCAGGCUUCGGUGGGGCGAUAGCGCCAACGUCCUCAACCUCUAAUGCAUCCCACCACAUGAUGAUGCCUGAAGAGACUUGGUUUUUUG [U14A C62G C89U C123A]	-3.6
GACCAAUCUGCCCUCAGAGCUCGAGAACAUCUUCGGAUGCAGAGGAGCCAGGCUUCGGUUGCGCGAUAGCGCCAACGUCCUCAACCUCCAAUGCAUCCCACCACAACAUGAUGCCUGAAGAGCCUUGGUUUUUUG [G48C G60U U106A G107C]	-6.48
GACCAAACUGCCCUCAGAGCUCGAGAACAUCUUCGGAUGCAGAGGAGUCAGGCUUCGGUGGCGCGAUAGCGCCAACGUCCUCAACCUCCAAUGGAUCCCACCACAUGAUGAUGCCCGAAAAGCCUUGGUUUUUUG [U7A G48U C94G U116C G120A]	-2.95
GACGAAUCUGCCCUCAGAGCUCGAGAACAUCUUCGGAUGCAGAGGAGGCAGGCUUCGGUGGCGCGAUAGCGCCAACGUCCUCAACCUCCAAUGCAUCCCACCACAUGAUGAUGCUUGAAGAGCCUUGGUUUUUUG [C4G C115U]	-2.19
GACCAAUCUGCCCUCAAAGCUCGAGAACAUCUUCGGAUGCAGAGGAGGCAGGCUUCGGUGGCGCGAUAGCGCCAACGUCCUCAUCCUCCAAUGCAUCCCACCACAUGAUGAUGCCUGAAGAGCCUUGGUUUUUUG [G17A A84U]	-2.87
GACCAAUCCGCCCUCAGAGCUCGAGAACAUCUUCGGAUGCAGAGGAGGCAGGCUUCGGUGGCGCGAUAGCGCCAACGUCCUCAACCUCCAAAGCAUCCCACCACAUGAUGAUGCCUGAAGAGCCUUGGUUUUUUG [U9C U92A]	-1.27
GACCAAUCUACCCUCAGAGCUCGAGAACAUCUUCGGAUGCAGAGGAGGCAGGCUUCGCUGGCGCGAUAGCGCCAACGUCCUCAACCUCCAAUGCAUCCCACCACAUGAUGAUGCCUGAAGAGACUUGGUUUUUUG [G10A G58C C123A]	1.18
GACCAAUCUGCCCUCAGAGCUCGAGAACAUCUUCGGAUGCAGAGGAGGCAGGCUUCGGUGGCGCGAUAGCCCCAACGUCCUCAAACUCCAAUGCAUCCCAUCACCUGAUGAUGCCUGAAGAGCCUUGGUUUUUUG [G71C C85A C101U A105C]	-5.59
GACCAAUCUGCCCUCAGAGCUCGAGAACAUCUUCGGAUGCAGAGGAGCCAGGCUUCGGUUGCGCGAUAGCGCCAACGUCCUCAACCUCCAAUGCAUCCCACCACCUGAUGAUGCCCGAAGAGCCUUGGUUUUUUG [G48C G60U A105C U116C]	-5.8
GACCAAUGUGCCCUCAGAGCUCGAGAACAUCUUCGGAUGCAGAGGAGGCAGGCUUCGGUGGCGCGAUAACGCCAACGUCCUCAACCUCCAAUGCAUCCCACCACAUGAUGAUGCCUGAAGAGCCUUGGUUUUUUG [C8G G69A]	-1.5
GACCAAUCUGCCCUCAGAGCUCGAGAACAUCUUCGGAUGCAGAGGAGGCAGGCUUCGGUGGCGCGAUAGCCCCAACGUCCUCAACCUCCAAUGCAUCCCACCACAUGAUGAUGCCUAAAGAGCCUUGGUUUUUUG [G71C G117A]	-1.82
GACCAAUCUGCGCUCAGAGCUCGAGAACAUCUUCGGAUGCAGAGGAGGCAGGCUUCGGUGGCACGAUAGCGCCAACGUCCUCAACCUCCAAUGCAUCCCACCACAUGAUGAUGCCUGAAGAGCCUUGGUUUUUUG [C12G G63A]	-0.827
GAGCAAUCUGCCCUCAGAGCUCGAGAACAUCUUCGGAUGCAGAGGAGGCAGGCUUCGGUGCCGCGAUAGCGCCAACGUCCUCAACCUCCAAUGCAUCCCACCACAUGAUGAUGCCUGAAGAGCCUUGGUUUUUUG [C3G G61C]	-3.19
GACCAAUCUGCUCUCAGAGCUCGAGAACAUCUUCGGCUGCAGAGGAGGCAGGCUUCGGUGGCGCGAUAGCGCCAACGUCCUCAACCUCCAAUGCAUCCCACCACAUGAUGAUACCUGAAGAGGCUUGGUUUUUUG [C12U A37C G113A C123G]	0.27
GACCAAUCUGCCGUCAGAGCUCGAGAACAUCUUCGGAUGCAGAGGAGGCAGGCUUCGGUGGCGCGAUAGCGCCAACGUCCUCAACCUCCAAUGCAUCCCACCACAUGAUGAUGCCUGAAGUGCCUUGGUUUUUUG [C13G A121U]	0.0945
GACCAAUCUGCCCUCAGAGCUCGAGAACAUCUUCGGAUUCAGAGGAGGCAGGCUUCAGUGGCGCGAUAGCGCCAACGUCCUCAACCUCCAAUGCAUCCCACCACAUGAUGAUGCCUGAAGAGCCUUGGUUUUUUG [G39U G57A]	-0.803
GACCAAUCUGCCCUCAGAGCUCGAGAACAUCUUCGGAUGCAGAGGAGGCAAGCUUCGGUGGCGCGAUAGCGCCAACGUCCUCGACCUCCAAUGCAUCCCACCACAUGAUGAUGCCUGAAUAGGCUUGUUUUUUUG [G51A A83G G120U C123G G128U]	-2.51
GACCAAUCUGCCCUCAGAGCUCGAGAACAUCUUCGGAUGCAGAGGAGGCAGGCUUCGGUGGAGCGAUAGCGCCAACGUCCUCAACCUACAAUGCAUCCCACCACAUGAUGAUGCCUGAAGAGCCUUGGUUUUUUG [C62A C88A]	-2.76
GACCAAUCUGCCCUCAGAGCUCGAGAACAUCUUCGGAUGCAGAGGAGGCAGGCUUCGGUGGCGCGAUAGCGCCAACGUCCUCAACCUCCAAUGCAUACCACCACAUGAUGAUGCCUGAAGAGCCAUGGUUUUUUG [C97A U125A]	-5.2
GACCAAUCUGCACUCAGAGCUCGAGAACAUCUUCGGAUGCAGAGGAGGCAGGCUUCGGUGACGCGAUAGCGCCAACGUCCUCAACCUCCAAUGCAUCCCACCACAUGAUGAUGCCUGAAGAGCCUUGGUUUUUUG [C12A G61A]	-0.687
